Measurements from patent publication US20220073646A1 (Hoffmann-La Roche, published 2022).
Read-outs that look alike come from different tables or passages of the source. One block for each binder: values may come before it.

What was measured:
[1] = target: T1, human OX40 on cells (human, UniProt P43489 29-277); test: flow cytometry, activated human CD4 T cells
T1 sequence: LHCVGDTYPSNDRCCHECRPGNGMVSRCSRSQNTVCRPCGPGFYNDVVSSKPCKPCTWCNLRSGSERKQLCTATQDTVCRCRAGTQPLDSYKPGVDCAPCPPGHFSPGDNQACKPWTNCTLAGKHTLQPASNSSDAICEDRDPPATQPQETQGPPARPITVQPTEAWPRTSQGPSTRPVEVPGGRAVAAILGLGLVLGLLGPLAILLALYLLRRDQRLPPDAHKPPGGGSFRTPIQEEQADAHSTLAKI

[2] = target: T2, cynomolgus OX40 on activated cynomolgus PBMC (cynomolgus, UniProt P43489 29-214 (human entry)); test: flow cytometry, activated cynomolgus CD4 T cells
T2 construct: whole, on cells
T2 chain: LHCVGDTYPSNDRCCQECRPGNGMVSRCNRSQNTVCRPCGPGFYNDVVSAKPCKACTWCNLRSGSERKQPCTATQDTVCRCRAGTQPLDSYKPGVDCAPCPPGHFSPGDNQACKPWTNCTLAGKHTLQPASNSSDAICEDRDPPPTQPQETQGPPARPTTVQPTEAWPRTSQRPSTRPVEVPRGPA

[3] = target: T3, human FAP (His-tagged ectodomain) (human, UniProt Q12884 27-760); test: SPR, human FAP as second analyte
T3 construct: SPR texts say 'human FAP' or 'His-tagged ... dimeric FAP'; also called hu FAP; human FAP (analyte 2)

[4] = target: recombinant murine OX40 Fc(kih) (murine, UniProt P0DOX5 223-449 = IgG part, biotin on C-terminal Avi tag); test: SPR avidity format, murine OX40 Fc(kih) on SA chip
[5] = target: T1, human OX40 on cells; test: cell-based or functional assay
[6] = target: recombinant cynomolgus OX40 Fc(kih) (cynomolgus, UniProt P0DOX5 223-449 = IgG part, biotin on C-terminal Avi tag where used biotinylated); test: SPR, captured IgG, cyno OX40 Fc(kih) analyte
[7] = target: T4, dimeric human OX40 Fc fusion with a C-terminal Ha tag (human); test: SPR, OX40 Fc held on OX40 ligand
T4 construct: also called recombinant human Ox40 Fc; huOx40-Fc

[8] = target: T1, human OX40 on cells; test: flow cytometry, activated human CD4 T cells; remark: listed apart in the source
[9] = target: T5, recombinant murine OX40 (cleaved by AcTEV digestion) (murine, UniProt P47741 20-211); test: SPR, captured IgG, AcTEV-cleaved murine OX40 analyte
T5 construct: Fc removed from murine OX40 Fc(kih)
T5 sequence: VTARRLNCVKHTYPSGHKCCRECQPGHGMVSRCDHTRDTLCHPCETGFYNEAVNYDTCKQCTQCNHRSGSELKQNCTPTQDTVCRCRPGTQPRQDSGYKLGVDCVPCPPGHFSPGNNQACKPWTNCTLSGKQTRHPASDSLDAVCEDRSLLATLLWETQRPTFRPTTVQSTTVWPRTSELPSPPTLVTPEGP

[10] = target: T2, cynomolgus OX40 on activated cynomolgus …; test: flow cytometry, activated cynomolgus CD4 T cells
[11] = target: T1, human OX40 on cells; test: cell-based or functional assay; remark: listed apart in the source
[12] = target: T6, recombinant human OX40 His (human); test: SPR, captured IgG, OX40 His analyte
T6 construct: ectodomain with avi and hexahistidine tag; also called human Ox40 avi His
T6 chain: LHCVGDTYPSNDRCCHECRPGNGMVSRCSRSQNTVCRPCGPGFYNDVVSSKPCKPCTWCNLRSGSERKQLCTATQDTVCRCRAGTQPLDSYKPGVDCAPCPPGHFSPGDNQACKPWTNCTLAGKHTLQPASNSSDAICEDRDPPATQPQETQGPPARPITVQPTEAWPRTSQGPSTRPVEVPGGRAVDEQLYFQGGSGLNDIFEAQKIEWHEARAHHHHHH

[13] = target: T7, recombinant human OX40 Fc(kih) (human, UniProt P0DOX5 223-449 = IgG part, biotin on C-terminal Avi tag where used biotinylated); test: SPR, captured IgG, OX40 Fc(kih) analyte
T7 construct: antigen Fc knob chain plus Fc hole chain; also called monomeric human OX40 antigen Fc(kih) fusion; biotinylated human OX40

[14] = target: T8, recombinant murine GITR Fc(kih) (murine, UniProt P0DOX5 223-449 = IgG part, biotin on C-terminal Avi tag); test: SPR ProteOn XPR36, Fab as analyte
T8 construct: also called mu GITR-Fc

[15] = target: T9, recombinant human GITR Fc(kih) (human, UniProt P0DOX5 223-449 = IgG part, biotin on C-terminal Avi tag where used biotinylated); test: SPR ProteOn XPR36, biotinylated GITR-Fc on NLC chip, Fab analyte
T9 construct: also called hu GITR-Fc; human monomeric GITR-Fc fusion

[16] = target: T10, recombinant cynomolgus GITR Fc(kih) (cynomolgus, UniProt P0DOX5 223-449 = IgG part, biotin on C-terminal Avi tag where used biotinylated); test: as above
T10 construct: also called cy GITR-Fc

[17] = target: T11, human 4-1BB on cells (human, UniProt Q07011 24-255); test: flow cytometry, activated human CD8 T cells
T11 construct: also called HeLa-hu4-1BB-NF-kB-luc clone 26

[18] = target: T12, mouse 4-1BB on activated mouse splenocytes (mouse, UniProt P20334 24-256); test: flow cytometry, activated mouse T cells
[19] = target: recombinant cynomolgus 4-1BB Fc(kih) (cynomolgus, UniProt P0DOX5 223-449 = IgG part, biotin on C-terminal Avi tag where used biotinylated); test: SPR, captured IgG, cyno 4-1BB Fc(kih) analyte
[20] = target: T13, cynomolgus 4-1BB on activated cynomolgus PBMC (cynomolgus, UniProt Q07011 24-255 (human entry)); test: flow cytometry, activated cynomolgus CD8 T cells
T13 chain: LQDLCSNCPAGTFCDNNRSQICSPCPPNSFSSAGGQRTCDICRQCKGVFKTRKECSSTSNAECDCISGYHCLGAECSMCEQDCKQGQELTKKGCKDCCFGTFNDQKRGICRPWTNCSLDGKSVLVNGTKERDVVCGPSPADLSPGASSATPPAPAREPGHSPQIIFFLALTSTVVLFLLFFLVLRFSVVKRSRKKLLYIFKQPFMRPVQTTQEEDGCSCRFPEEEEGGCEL

[21] = target: T11, human 4-1BB on cells; test: cell-based or functional assay
[22] = target: T14, human fibroblast activation protein (huFAP) on cells (human, UniProt Q12884 1-760); test: flow cytometry, WM-266-4 and NIH/3T3-huFAP clone 19
T14 construct: also called NIH/3T3-huFAP clone 39; NIH/3T3-huFAP clone 19

[23] = target: T15, hu4-1BB-SNAP fusion protein on Hek293 EBNA cells (human, UniProt Q07011 24-255, labeled with the FRET donor Terbium); test: cell FRET competition against d2-labeled anti-4-1BB tracer, 4 h
T15 construct: not shown: SNAP tag

[24] = target: T16, recombinant human 4-1BB Fc(kih) (human, UniProt P0DOX5 223-449 = IgG part, biotin on C-terminal Avi tag where used biotinylated); test: SPR, captured IgG, 4-1BB Fc(kih) analyte
T16 construct: also called hu4-1BB; biotinylated human 4-1BB

[25] = target: T11, human 4-1BB on cells; test: flow cytometry, activated human CD8+ T cells
[26] = target: T13, cynomolgus 4-1BB on activated …; test: flow cytometry, activated cynomolgus CD4 T cells
[27] = target: T17, recombinant murine 4-1BB AcTEV (murine, UniProt P20334 24-187); test: SPR, captured IgG, murine 4-1BB AcTEV analyte
T17 construct: murine 4-1BB Fc(kih) cleaved with AcTEV protease, Fc removed
T17 sequence: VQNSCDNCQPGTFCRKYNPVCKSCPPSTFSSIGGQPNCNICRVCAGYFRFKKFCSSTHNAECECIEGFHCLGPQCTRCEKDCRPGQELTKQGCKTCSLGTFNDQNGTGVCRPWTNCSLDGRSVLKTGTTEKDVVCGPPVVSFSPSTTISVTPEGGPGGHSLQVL

[28] = target: T12, mouse 4-1BB on activated mouse …; test: flow cytometry, activated murine CD8 T cells
[29] = target: T18, recombinant murine 4-1BB Fc(kih) (murine, UniProt P0DOX5 223-449 = IgG part, biotin on C-terminal Avi tag where used biotinylated); test: SPR avidity format, murine 4-1BB Fc(kih) on SA chip
T18 construct: also called mu4-1BB

[30] = target: T11, human 4-1BB on cells; test: flow cytometry, activated human T cells
[31] = target: T12, mouse 4-1BB on activated mouse …; test: flow cytometry, activated murine CD4 T cells
[32] = target: T16, recombinant human 4-1BB Fc(kih); test: SPR

B1: OX40(49B4)/DP47 P329GLALA IgG1 4+2 (bispecific antibody)
heavy: not shown
light 1: DIQMTQSPSTLSASVGDRVTITCRASQSISSWLAWYQQKPGKAPKLLIYDASSLESGVPSRFSGSGSGTEFTLTISSLQPDDFATYYCQQYSSQPYTFGQGTKVEIKRTVAAPSVFIFPPSDRKLKSGTASVVCLLNNFYPREAKVQWKVDNALQSGNSQESVTEQDSKDSTYSLSSTLTLSKADYEKHKVYACEVTHQGLSSPVTKSFNRGEC
light 2: not shown
notes: also called 4+2 (49B4/DP47); untargeted 4+2 construct
- EC50 [1]: 0.11 nM
- EC50 [2]: 0.07 nM
- binding result [3]: no binding (tested: 250 nM)

B4: 12B3 P329GLALA IgG1 (antibody, V domains shown)
VH: QVQLVQSGAEVKKPGSSVKVSCKASGGTFSSYAISWVRQAPGQGLEWMGGIIPIFGTANYAQKFQGRVTITADKSTSTAYMELSSLRSEDTAVYYCARSEFRFYADFDYWGQGTTVTVSS
VL: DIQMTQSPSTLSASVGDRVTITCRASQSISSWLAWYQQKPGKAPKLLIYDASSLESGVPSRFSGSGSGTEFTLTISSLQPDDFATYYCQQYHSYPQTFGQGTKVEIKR
notes: anti-4-1BB; also called 12B3 IgG; 12B3 huIgG1 P329G LALA
- EC50 [17]: 0.95 nM
- binding result [18]: no binding
- Kd [19]: 20 nM
- koff [19]: 0.00078 s⁻¹
- kon [19]: 38000 M⁻¹ s⁻¹
- EC50 [20]: 0.47 nM
- EC50 of increase of IFNγ secretion in activated CD8+ T cells (surface-immobilized IgG) [21]: 0.07 nM
- binding result [22]: no binding
- EC50 [23]: 1.4 nM
- bracketed interval of the EC50 (not explained) [23]: 0.9 to 2.1 nM
- Kd [24]: 30 nM
- koff [24]: 0.001 s⁻¹
- kon [24]: 34000 M⁻¹ s⁻¹
- EC50 [25]: 0.4 nM
- EC50 [26]: 0.59 nM

B5: 20G2 P329GLALA IgG1 (antibody, V domains shown)
VH: QVQLVQSGAEVKKPGSSVKVSCKASGGTFSSYAISWVRQAPGQGLEWMGGIIPIFGTANYAQKFQGRVTITADKSTSTAYMELSSLRSEDTAVYYCARSYYWESYPFDYWGQGTTVTVSS
VL: DIQMTQSPSTLSASVGDRVTITCRASQSISSWLAWYQQKPGKAPKLLIYDASSLESGVPSRFSGSGSGTEFTLTISSLQPDDFATYYCQQQHSYYTFGQGTKVEIKR
notes: also called anti-mouse 4-1BB clone 20G2 huIgG1 P329G LALA
- Kd [27]: 14 nM
- koff [27]: 0.00034 s⁻¹
- kon [27]: 24000 M⁻¹ s⁻¹
- EC50 [28]: 16.4 nM
- binding result [29]: binds
- binding result [30]: no binding
- EC50 [31]: 10.1 nM
- binding result [32]: no binding

Continued, values first:

- binding result [4]: binds
- EC50 of rescuing suboptimal TCR stimulation with plate-immobilized anti-OX40 binder (preactivated human CD4 T cells) [5]: 0.09 nM
- Kd [6]: 1100 nM
- koff [6]: 0.0166 s⁻¹
- kon [6]: 15700 M⁻¹ s⁻¹
- binding result [7]: binds
- EC50 [8]: 1.64 nM
- Kd [9]: 360 nM
- koff [9]: 0.018 s⁻¹
- kon [9]: 49000 M⁻¹ s⁻¹
- EC50 [10]: 1.52 nM
- EC50 of NFκB activation in HeLa_hOx40_NFκB_luc1 reporter cells with secondary anti-human IgG Fcγ antibody [11]: 2.27 nM
- Kd [12]: 5.6 nM
- koff [12]: 0.00066 s⁻¹
- kon [12]: 120000 M⁻¹ s⁻¹
- Kd [13]: 42 nM
- koff [13]: 0.0013 s⁻¹
- kon [13]: 32000 M⁻¹ s⁻¹
B2: 20B7 P329GLALA IgG1 (antibody, V domains shown)
VH: QVQLVQSGAEVKKPGSSVKVSCKASGGTFSSYAISWVRQAPGQGLEWMGGIIPIFGTANYAQKFQGRVTITADKSTSTAYMELSSLRSEDTAVYYCARVNYPYSYWGDFDYWGQGTTVTVSS
VL: DIQMTQSPSTLSASVGDRVTITCRASQSISSWLAWYQQKPGKAPKLLIYDASSLESGVPSRFSGSGSGTEFTLTISSLQPDDFATYYCQQYQAFSLTFGQGTKVEIKR
notes: anti-OX40

- binding result [14]: no binding
- Kd [15]: 4.4 nM
- Kd [16]: 67 nM
B3: clone 8A06 purified Fab (Fab, V domains shown)
VH: QVQLVQSGAEVKKPGSSVKVSCKASGGTFSSYAISWVRQAPGQGLEWMGGIIPIFGTANYAQKFQGRVTITADKSTSTAYMELSSLRSEDTAVYYCARGYYAIDYWGQGTTVTVSS
VL: SSELTQDPAVSVALGQTVRITCQGDSLRSYYASWYQQKPGQAPVLVIYGKNNRPSGIPDRFSGSSSGNTASLTITGAQAEDEADYYCNSPQTSGSAVFGGGTKLTVL
notes: bacterially expressed Fab of the lambda-DP88 library with CH1/CL and tags; also called 8A06 (Fab-format)
